Experimental data from paper PMC3062594, “Intermolecular masking of the HIV-1 Rev NLS by the cellular protein HIC: Novel insights into the regulation of Rev nuclear import” (Retrovirology, 2011).

Target: T1, recombinant 6×His-HIC (Human I-mfa domain-Containing protein) (human, UniProt Q9P1T7-2 1-246)
T1 construct: also called 6xHis-HIC; 6ΧHis HIC; source: recombinant, purified; produced as described previously [25]; not shown: 6xHis, N-terminal, kept
T1 sequence (looked up): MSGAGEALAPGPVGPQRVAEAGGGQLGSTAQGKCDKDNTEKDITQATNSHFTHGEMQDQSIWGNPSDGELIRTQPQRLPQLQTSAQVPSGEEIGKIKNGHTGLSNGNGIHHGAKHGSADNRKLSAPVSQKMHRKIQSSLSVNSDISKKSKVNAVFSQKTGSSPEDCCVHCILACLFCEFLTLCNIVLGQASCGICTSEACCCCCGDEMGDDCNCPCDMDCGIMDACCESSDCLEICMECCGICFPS
Assay: pull-down
Details: both partners purified

B1: GST-YFP-RevNLS (aa35-46) (domain or fragment)
chain: RQARRNRRRRWR
notes: source: recombinant GST fusion protein, purified; produced as described previously; not shown: GST, N-terminal, kept; YFP, N-terminal, kept
B1: binds.
